From patent US20060270591A1 (published 2006)

Target: T1, VP16 fused near full-length AR (nAR, aa 36-918) (human, UniProt P10275 36-919)
T1 sequence: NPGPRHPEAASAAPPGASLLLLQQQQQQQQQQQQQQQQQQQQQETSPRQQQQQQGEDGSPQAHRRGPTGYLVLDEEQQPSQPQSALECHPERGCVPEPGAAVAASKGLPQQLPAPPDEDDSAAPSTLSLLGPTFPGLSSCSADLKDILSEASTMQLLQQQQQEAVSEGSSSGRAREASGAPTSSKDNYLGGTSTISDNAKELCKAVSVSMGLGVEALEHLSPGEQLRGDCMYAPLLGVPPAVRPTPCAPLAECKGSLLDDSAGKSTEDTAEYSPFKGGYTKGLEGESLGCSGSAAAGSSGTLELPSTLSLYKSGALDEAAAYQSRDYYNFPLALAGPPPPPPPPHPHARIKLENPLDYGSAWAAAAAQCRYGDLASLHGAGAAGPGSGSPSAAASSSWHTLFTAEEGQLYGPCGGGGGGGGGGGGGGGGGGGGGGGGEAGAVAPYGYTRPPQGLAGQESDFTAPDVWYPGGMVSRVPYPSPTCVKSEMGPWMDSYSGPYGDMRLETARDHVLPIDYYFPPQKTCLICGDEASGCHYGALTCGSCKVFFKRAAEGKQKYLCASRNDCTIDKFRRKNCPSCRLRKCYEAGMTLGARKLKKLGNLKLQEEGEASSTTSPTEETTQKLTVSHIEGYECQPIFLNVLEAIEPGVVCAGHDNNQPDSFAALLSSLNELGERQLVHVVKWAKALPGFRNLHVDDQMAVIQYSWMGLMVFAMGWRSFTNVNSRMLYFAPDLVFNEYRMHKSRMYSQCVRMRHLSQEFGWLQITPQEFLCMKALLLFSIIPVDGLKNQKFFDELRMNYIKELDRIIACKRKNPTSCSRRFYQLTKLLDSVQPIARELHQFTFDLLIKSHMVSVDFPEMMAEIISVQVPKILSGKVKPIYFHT
Experiment: mammalian two-hybrid, DU145, CAT

B1: PR-LBD (mammalian two-hybrid construct) (receptor, UniProt P06401 679-933, looked up)
chain: QDIQLIPPLINLLMSIEPDVIYAGHDNTKPDTSSSLLTSLNQLGERQLLSVVKWSKSLPGFRNLHIDDQITLIQYSWMSLMVFGLGWRSYKHVSGQMLYFAPDLILNEQRMKESSFYSLCLTMWQIPQEFVKLQVSQEEFLCMKVLLLLNTIPLEGLRSQTQFEEMRSSYIRELIKAIGLRQKGVVSSSQRFYQLTKLLDNLHDLVKQLHLYCLNTFIQSRALSVEFPEMMSEVIAAQLPKILAGMVKPLLFHKK
notes: domain: LBD; Construct not described
binding result: no binding
